Consider 1 molecule from US20060078537A1.

The target in the assay is human CCR5 (human) (UniProt P51681). The experiment in a line: cell-based or functional assay.
human CCR5 (human), sequence (P51681 whole entry): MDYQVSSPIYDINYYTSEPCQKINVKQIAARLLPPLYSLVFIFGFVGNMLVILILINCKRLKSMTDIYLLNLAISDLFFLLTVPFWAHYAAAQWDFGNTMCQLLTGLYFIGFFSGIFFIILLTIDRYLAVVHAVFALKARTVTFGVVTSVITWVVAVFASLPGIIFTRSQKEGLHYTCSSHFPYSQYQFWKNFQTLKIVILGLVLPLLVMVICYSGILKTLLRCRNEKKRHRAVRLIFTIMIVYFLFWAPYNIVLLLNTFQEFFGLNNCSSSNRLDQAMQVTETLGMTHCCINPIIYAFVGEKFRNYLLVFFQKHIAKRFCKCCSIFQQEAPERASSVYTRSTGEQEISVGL

B1: MC-1 anti-CCR5 monoclonal antibody (antibody, from another filing, V domains shown)
VH: QVQLQQPGAGRVRPGASVKLSCKASGYSFTSYWMNWVKQRPGQGLEWIGMIHPSDSETRLNQKFNDRATLTVDKYSSTAYIQLSSPTSEDSAVYYCARGEYYYGIFDYWGQGTTVTVSS
VL: DIQLTQSPASLSASVGETVTITCRASENIYSYLAWYQQKQGKSPQLLVYNAKTLTEGVPSRFSGSGSGTQFSLKINSLQPEDFGNYFCQHHYDTPRTFGGGTKLEIK
As for B1, the decrease of cell surface CCR5 on CHO cells expressing CCR5 (FACS, 30 minutes at 37° C.) at 5 µg/ml MC-1 turned out to be 50%.
